From US20160291016A1 (CHU SAINTE JUSTINE, published 2016)

Key:
[1] = biological target: T1, integrin α5 (OPN receptor subunit) of mouse osteoblasts (mouse, UniProt P11688 45-1053); assay: co-immunoprecipitation from mouse osteoblast lysates, Western blot
T1 construct: Only the subunit is named; also called α5 integrin
Text: (§1) Then, was examined whether the interaction of OPN with the receptor is influenced by PTPμ deficiency. […] In contrast, levels of CD44 in OPN immunoprecipitates were similar in WT and PTPμ^{-/-} osteoblasts.

[2] = biological target: T2, integrin β1 (OPN receptor subunit) of mouse osteoblasts (mouse, UniProt P09055 21-798); assay: as above
T2 construct: Only the subunit is named; also called β1 integrin
Text: as §1

T2 sequence (chain, as listed by the source limits assumed, chain 1 of 2): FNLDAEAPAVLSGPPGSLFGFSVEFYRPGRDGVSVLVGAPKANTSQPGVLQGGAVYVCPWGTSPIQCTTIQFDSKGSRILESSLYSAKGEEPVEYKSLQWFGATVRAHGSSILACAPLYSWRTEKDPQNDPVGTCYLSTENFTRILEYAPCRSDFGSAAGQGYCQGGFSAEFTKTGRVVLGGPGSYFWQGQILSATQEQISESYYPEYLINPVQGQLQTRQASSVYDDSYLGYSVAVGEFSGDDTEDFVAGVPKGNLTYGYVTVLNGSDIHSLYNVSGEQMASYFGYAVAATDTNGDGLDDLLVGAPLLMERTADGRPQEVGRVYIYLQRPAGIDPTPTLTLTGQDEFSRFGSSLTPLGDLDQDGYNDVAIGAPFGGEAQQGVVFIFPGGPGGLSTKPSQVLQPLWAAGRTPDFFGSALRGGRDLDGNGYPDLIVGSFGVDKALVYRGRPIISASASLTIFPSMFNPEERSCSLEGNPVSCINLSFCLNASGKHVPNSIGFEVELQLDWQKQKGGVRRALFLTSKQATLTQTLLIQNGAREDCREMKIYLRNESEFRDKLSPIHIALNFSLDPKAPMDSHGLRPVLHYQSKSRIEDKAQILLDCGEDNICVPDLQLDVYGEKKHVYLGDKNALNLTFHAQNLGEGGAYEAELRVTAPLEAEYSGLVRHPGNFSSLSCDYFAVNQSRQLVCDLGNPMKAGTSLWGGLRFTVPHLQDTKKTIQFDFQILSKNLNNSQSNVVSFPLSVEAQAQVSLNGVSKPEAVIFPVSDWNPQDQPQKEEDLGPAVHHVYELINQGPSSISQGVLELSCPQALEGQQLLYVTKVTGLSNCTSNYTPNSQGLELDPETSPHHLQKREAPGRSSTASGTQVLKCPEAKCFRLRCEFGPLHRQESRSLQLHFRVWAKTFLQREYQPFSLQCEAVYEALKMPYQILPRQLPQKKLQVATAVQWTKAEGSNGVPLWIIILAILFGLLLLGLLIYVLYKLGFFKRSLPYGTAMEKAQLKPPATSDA
T2 sequence (P09055 21-798 limits assumed, chain 2 of 2): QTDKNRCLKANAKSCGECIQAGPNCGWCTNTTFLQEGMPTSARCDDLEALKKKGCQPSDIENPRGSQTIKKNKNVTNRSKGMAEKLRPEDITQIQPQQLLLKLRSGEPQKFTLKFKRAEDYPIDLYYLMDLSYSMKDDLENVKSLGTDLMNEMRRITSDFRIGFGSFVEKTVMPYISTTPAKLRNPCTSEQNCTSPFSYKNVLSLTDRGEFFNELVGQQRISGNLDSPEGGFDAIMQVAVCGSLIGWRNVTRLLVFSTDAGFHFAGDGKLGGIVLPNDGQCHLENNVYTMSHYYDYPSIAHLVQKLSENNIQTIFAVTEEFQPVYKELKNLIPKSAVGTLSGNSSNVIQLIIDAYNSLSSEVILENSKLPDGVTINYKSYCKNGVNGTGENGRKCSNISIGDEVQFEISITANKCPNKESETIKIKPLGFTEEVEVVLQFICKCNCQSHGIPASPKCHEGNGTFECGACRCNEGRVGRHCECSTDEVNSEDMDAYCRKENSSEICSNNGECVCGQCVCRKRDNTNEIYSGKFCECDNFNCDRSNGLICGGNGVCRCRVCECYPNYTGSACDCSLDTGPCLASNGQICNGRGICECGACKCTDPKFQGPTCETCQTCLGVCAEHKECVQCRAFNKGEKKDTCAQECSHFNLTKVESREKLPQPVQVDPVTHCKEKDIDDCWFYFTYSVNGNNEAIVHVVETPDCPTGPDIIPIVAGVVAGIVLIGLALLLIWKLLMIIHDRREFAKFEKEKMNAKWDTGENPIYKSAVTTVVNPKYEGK
T1 sequence (P11688 45-1053 limits assumed, chain 1 of 2): as the sequence (chain, as listed by the source limits assumed, chain 1 of 2) above
T1 sequence (chain, as listed by the source limits assumed, chain 2 of 2): as the sequence (P09055 21-798 limits assumed, chain 2 of 2) above

fold change of the level in the immunoprecipitates, PTPµ-/- osteoblasts against WT osteoblasts [1]: > 30 fold
fold change of the level in the immunoprecipitates, PTPµ-/- osteoblasts against WT osteoblasts [2]: > 30 fold
B1: osteopontin (OPN), endogenous, in lysates of mouse osteoblasts (ligand)
chain: not shown
notes: Endogenous protein detected by Western blot with an anti-OPN antibody after immunoprecipitation of its receptors
